{"source": "paper PMC7489885", "about": "(Cell, 2020)", "binders": {"B1": {"name": "BD-236 Fab (Fab, V domains shown)", "VH": "EVQLVESGGGLIQPGGSLRLSCAASGITVSSNYMSWVRQAPGKGLEWVSVIYSGGSTDYADSVKGRFTISRDKSKNTLYLQMNSLRAEDTAVYYCARDLGEAGGMDVWGQGTTVTVSS", "VL": "AIQLTQSPSSLSASVGDRVTITCRASQGISSYLAWYQQKPGKAPKLLIYAASTLQSGVPSRFSGSGSGTDFTLTISSLQPEDFATYYCQQLNSYPPAFGGGTKVEIK"}}, "target": "SARS-CoV-2 RBD (residues 319-541) with an N-terminal His6 tag (SARS-CoV-2, UniProt P0DTC2)", "assay": "crystal structure"}
{"binder": "B1", "values": [{"measurement": "binding result", "value": "binds"}]}
